{"source": "the DeepSol protein solubility set", "data": [{"assay": "soluble on expression in E. coli; label from the status in PepcDB or PDB records", "values": [{"sequence": "MSLVQFASDTDPIVQPDSLSDAGAAAPVTREAVLGAFLRAHRERLAPADVGLPPGRRRRTPGLRREEVAQLAGLSATWVTWLEQGRPVALSARALASLAAALRLSRAERAYLFELAGRRDPQQAGGEAVPAAVMASVHAIRGPAYLLDRQWNALTWNAAAAELFIGWLDGDSQERNLLRAMFVSAPLQALVEDWPHRAGRLVAEFRAHSIRHADDAPMRALIEGLMAESPAFRAAWLSQDVEDREGGRRGFRHPALGALQFEQLTLWPAAAPGLMLVMLLPAEGHHHHHH", "soluble on expression in E. coli": "not soluble"}, {"sequence": "MIENAKENSQRVELKDRIIETASEAFTTHGIKSITMDDIAASLGISKRTLYEVFQDKESLLTQCILKRQEEMNAFLAETLANSKNVLEVILVCYQRSIETFHRTNKRFFEDIKKYPKVHSLLKNYRERDSDSTIEFFKMGIKQGIFRDDVNFAIVNLLVHEQLDLLMNTDICNKYSFLEVYEAIMFTYIRGISTEKGAKVLEDFITEYRKQRIH", "soluble on expression in E. coli": "not soluble"}, {"sequence": "MENPLQKARILVNQLEKYLDHYAKEYDVEHLAGPQGHLVMYLYKHPDKDMSIKAVEEILHISKSVASNLVKRMEKNGFIAIVPSKTDKRVKYLYLTHLGKKKATQFEIFLEKLHSTMLAGITKEEIRTTKKVIRTLAKNMAMENLD", "soluble on expression in E. coli": "soluble"}, {"sequence": "MGSDKIHHHHHHMSVSISEKTKQAYQHAVEQASVSLLRQPQNSMADELRLLAEQLQPNEKRDVYGGGSLINDFEDEVAELLGKPAALFLPTGTLAQPLALRVHADERQRNGVALHPTSHLMLHEHMGFEALWKLNGTTTGFADNPITLNDLKSVQTDDLASVLLELPMREIGGQLPNWDDLVMQSEWARQHNIAMHLDGARLWQVPAAYGCSLPEVCELFDSVYVSFYKDLGGISGAILAGSEGFIEQAKIWARRAGGNIITQYPQVLSARHGLKENLPIMPEAVNYARALGEALSALNGVRVNPETPQVAMFHLHFALKANELSEKITDYASNTGVVLLPLPRAEMNNEAICEVSIGRNAMSQPQSFWLRHFKAFLDTL", "soluble on expression in E. coli": "not soluble"}, {"sequence": "GLNSVIKPTKYKPVPDEEPNSTDVEETLKRIQNNDPDLEEVNLNNIMNIPVPTLKACAEALKTNTYVKKFSIVGTRSNDPVAFALAEMLKVNNTLKSLNVESNFISGSGILALVEALQSNTSLIELRIDNQSQPLGNNVEMEIANMLEKNTTLLKFGYHFTQQGPRLRASNAMMNNNDLVRKRRL", "soluble on expression in E. coli": "soluble"}, {"sequence": "MSSAYQLVIFDWEGTIADTLGVILHTVATEAKMLGFGDIDPYQARKYVDLGLVQAVKKTLPNLTAGQQEDLLQAVQSAMISRPTEVRLIPGVLEFIQQLHQAKVDLAIATNKGHNSLIRALQATELDQLFKVTRSAGQVPAKPCPQMLEEIMEEFGRDPSSTLMIGDSTTDMEMAKRINVNAIGMDFYHQQEDALKAAGALAVFDDYKLLSAYLMLPEA", "soluble on expression in E. coli": "not soluble"}, {"sequence": "MKKIALTLAATSITLVSYSAFSAQDAEHVRLATTTSTYHSGLLDYLLPQFEKDTGYKVDVIAAGTGKALKMGENGDVDLVMTHAPKAEGTFVEKGYGVLPRKLMYNDFVIVGPKADPAKIKDDESVLDVFKEIANKNATFISRGDDSGTHKKEMGFWAQTKIEPNFGGYRSVGQGMGPTLNMASEMQGYTMSDRGTWLAYQNKLDLEILFQGDEKLFNPYQVILVNPERYPTINYQGAKAFSDWLVNPRGQELINGFRLNGKQLFVANAESK", "soluble on expression in E. coli": "not soluble"}, {"sequence": "MGSDKIHHHHHHMSSAPIIYALSNNSLLIDAAHLDANNVLTIQKKIWALAAHCKNTAEFTDLVAGMNSLTLYLKSSAGLTKWLEALPLLWDELKSSTFTGKHHLIETLYEGEDLAYVARFHNLSIDEVISIHSKAQYHVLFLGFQPGFAYLHGLDTRLHTPRRAEPRIKVPKGAVAIGAAQTGIYPSDTPGGWHIIGHTNTTLFNSSHSQPCLMQPGDTLEFVALKNQGAGA", "soluble on expression in E. coli": "not soluble"}, {"sequence": "MGHHHHHHSHMYAFTLHPNAQHRRTRIGTSVDLSCLLCFRIGGFYALSPYPGLRLISLNMNFCSRENFWLLINSTDPAGQLQWLVGELQAAEDRGDKVRASSGNTVVLGDKQAPVELEHLWAQKFYFPGIPNKCSLGIQLMVTVESLHSVPLSLARAAWTPGCPDYHP", "soluble on expression in E. coli": "not soluble"}, {"sequence": "EFRKLGEVCEILDNRRIPIAKNKRNPGIYPYYGANGIQDYIDSYIFDGDFVLVGEDGSVINKDNTPVVNWASGKIWVNNHAHVLQTKNELKLKFLYFYLQTIDVSYCVAGTPPKINQENLKKIAIPIPPLEIQQEIVKILDQFSI", "soluble on expression in E. coli": "not soluble"}]}]}
